The nature of this data set: amyloid nucleation score (Sup35N fusion, yeast selection) (log enrichment); library NNK1; higher = more nucleation; inactive = no reads after selection. In a few lines:
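The nucleation score is the log enrichment of output over input reads, calculated with DiMSum and centred on the mode score of non-aggregating sequences. Sequences with under 100 input reads were excluded. Reads came from Illumina sequencing of plasmid inserts from psi-negative yeast expressing Sup35N fused to peptides of 20 random codons, induced 24 hours with 100 μM copper sulfate and grown 7 days at 30°C without adenine and uracil.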

± gives the uncertainty stated by the source.

With KMTCCSGSINDGYLYCVYNV, the amyloid nucleation score is 6.56 ± 0.071.

NLVRLVRIARCSMRSSVGTL: the amyloid nucleation score was 1.23 ± 0.16.

For the substance TSREGRGSLSVWSG, the amyloid nucleation score is -0.19 ± 0.81.

Substance HPIGSDSPHSVFMVSCVSLQ gave an amyloid nucleation score of 1.68 ± 0.28.

Turning to IPRGCRFKSRVTVKINSGAG, the amyloid nucleation score turned out to be 1.37 ± 0.9.

Turning to RWGLRQIMVVENFIHRWVCP, the amyloid nucleation score worked out at 1.04 ± 0.79.

Turning to NNVRVDKACGEAMEDEKRVV, the amyloid nucleation score was 0.672 ± 0.37.

The substance FVRAIMARVGFTFV came in with an amyloid nucleation score of 0.569 ± 0.47.

As to HHRVCSMKWSNCYELNVMGE, the amyloid nucleation score is -0.429 ± 0.28.

As to KITIGINS, the amyloid nucleation score came to 0.4 ± 0.33.

With GSNIGQSFWYRRWVQQRTAE, the amyloid nucleation score was -1.13 ± 2.7.

As for LMDNCVRR, the amyloid nucleation score is -1.06 ± 1.9.

TRSVWIEDRVTRAARFKGQR: the amyloid nucleation score was -0.116 ± 0.47.

For the substance GYFDMFTKIVVL, the amyloid nucleation score was determined as 0.856 ± 0.45.

The substance FVEVMLIVNFTGLGVV came in with an amyloid nucleation score of 0.576 ± 0.16.

As to LLFCQNDSGVVRLMLTVFLR, the amyloid nucleation score is -0.791 ± 1.2.

Regarding MFGKLLICYRLYK, the amyloid nucleation score worked out at 0.084 ± 0.75.

For PSTVCMFPRWLAVVRLVLQT, the amyloid nucleation score came out at 0.79 ± 0.35.

With AMNFWRKILIFSELVYG, the amyloid nucleation score is 2.19 ± 0.5.

VTRYVPECGWKDLDLASWYL: the amyloid nucleation score was found to be 1.34 ± 0.58.

Regarding NSWVSINMCNVFGPHCMWTV, the amyloid nucleation score is 7.21 ± 0.074.

Consider QVFATRDAQRYLLMHRIDHN, for which the amyloid nucleation score is -0.153 ± 1.7.

With VCSQHGGWISGGKGSILARS, the amyloid nucleation score was -0.417 ± 0.99.

For the substance SCHYDQPDQKLLASQSLL, the amyloid nucleation score is -1.02 ± 0.68.

GIGAVSAC yielded an amyloid nucleation score of 0.317 ± 0.56.

As to TASNHVVLSHPDSGILGIRA, the amyloid nucleation score is -0.278 ± 0.42.

On to RRMGKSFKAYTDGVQRKILS, for which the amyloid nucleation score is 0.593 ± 0.68.

Turning to SFFFKFYSDSFGNSTFQTID, the amyloid nucleation score is -0.046 ± 0.31.

KCDARVVIFYLVRAGGVNGI gave an amyloid nucleation score of 1.41 ± 0.35.

For GMAWSRSLRVGHSGIMGRAV, the amyloid nucleation score worked out at 0.189 ± 0.22.

On to EKSGAWSTVRRMISC, for which the amyloid nucleation score came to 0.374 ± 0.23.

For the substance ARGCD, the amyloid nucleation score was -0.247 ± 1.1.

In the case of VITWEWFRFRRRFGKMEGCL, the amyloid nucleation score was 1.24 ± 0.28.

Turning to VVVIFLHGIWCGLRL, the amyloid nucleation score is -0.208 ± 0.75.

Substance RHVAYRSLRFSGCTP had an amyloid nucleation score of 0.416 ± 0.76.

YFYDILGCDWKALSGRLIDT: the amyloid nucleation score was -0.603 ± 0.25.

Regarding MDRIRFLFFW, the amyloid nucleation score was 0.448 ± 0.69.

On to SHLNHEGFRLIQCLIWSLHW, for which the amyloid nucleation score was 0.33 ± 0.54.

Take LQLCLPVFNHVMHVNWMRFY: the amyloid nucleation score is -0.837 ± 2.4.

SSFRLQALPVEFHGVNYHLA showed an amyloid nucleation score of 0.182 ± 0.92.

RTILISAGAKCVNLMMLDSV registered an amyloid nucleation score of 1.6 ± 0.29.

With HWVGFLRYTSIKDDHQFGSK, the amyloid nucleation score was -0.323 ± 0.51.

For the substance GDQSM, the amyloid nucleation score worked out at 0.262 ± 0.31.

Regarding RVSKFPKSFNVSFKADNKIH, the amyloid nucleation score turned out to be 4.02 ± 0.06.

For NLFIPILVYHDVSRYSLRMD, the amyloid nucleation score is 6.483 ± 0.055.

Substance PMICFGWALIRYVTFQDLPV gave an amyloid nucleation score of 0.276 ± 0.45.

Turning to YYYYPNGDCEKK, the amyloid nucleation score is -0.657 ± 0.63.

In turn, ILLELVASTVVLPLIT registered an amyloid nucleation score of 0.165 ± 0.43.

On to LNVGVLGGRLLSGALVNSTM, for which the amyloid nucleation score amounted to 0.396 ± 0.65.

For VFNWTHPWLSQH, the amyloid nucleation score was -0.047 ± 0.78.

In the case of RGNLESFVLGNIRVTNP, the amyloid nucleation score amounted to 1.01 ± 0.18.

In the case of YMFWRGLVFKWVV, the amyloid nucleation score was determined as 0.667 ± 0.56.

Substance TIVSGTRSYNLHRSILLLHL had an amyloid nucleation score of 1.5 ± 0.23.

As for SSLQPLIFMRSIHLIVW, the amyloid nucleation score was 0.265 ± 0.75.

Take SDKAMHCGCVLH: the amyloid nucleation score is -0.891 ± 0.56.

For LKIEPRC, the amyloid nucleation score was -0.512 ± 0.4.

On to TCLISCRLPDKGHGSVT, for which the amyloid nucleation score was -0.069 ± 0.44.

Take FIQCVFHVCLRV: the amyloid nucleation score came out at 4.68 ± 0.073.

For the substance IYISYIRRRFVGLFST, the amyloid nucleation score is -0.938 ± 0.47.

In the case of QMGELSSYRLFGIRTFRF, the amyloid nucleation score is -0.02 ± 0.81.

For YALFADACSKGALDKVFSWV, the amyloid nucleation score amounted to 0.745 ± 1.2.

As for CRTTHQALRWIHMDYYYSWV, the amyloid nucleation score was -0.327 ± 0.31.

The substance FIIDYKTDKRSEFWL came in with an amyloid nucleation score of 0.215 ± 0.35.

On to NRPGEINKWSTLIDGVTRFS, for which the amyloid nucleation score worked out at 0.335 ± 0.41.

In the case of SQRSMRRRRVRVIKDARYNW, the amyloid nucleation score was determined as 0.224 ± 0.48.

Consider EFSLGSPIKWTNHGLVIKGM, for which the amyloid nucleation score was found to be 2.71 ± 0.13.

In the case of TCQFFRLSNRILQGDYSILM, the amyloid nucleation score is -0.342 ± 0.48.

Substance ILVSYLSLPT came in with an amyloid nucleation score of 0.802 ± 0.42.

As for LTRGQSLPMCATSVFEEYSH, the amyloid nucleation score worked out at 0.325 ± 0.43.

For NQDFLTLALKWRCECFHTKL, the amyloid nucleation score is -0.247 ± 1.9.

Turning to YCNGNRKVVEVDFDWILGGG, the amyloid nucleation score is -0.33 ± 1.1.

STASQWQCHD showed an amyloid nucleation score of 0.461 ± 0.41.

Substance CCLIHS registered an amyloid nucleation score of 1.38 ± 0.5.

In turn, NSRSVVLMSVDFIILGYDKM had an amyloid nucleation score of 3.56 ± 0.17.

Take SHLGVVCNRLVYERETNVST: the amyloid nucleation score is -0.191 ± 0.29.

As for EPFETQEVMSLNMCSNQMVF, the amyloid nucleation score is 0.333 ± 0.27.

For DSSRTLFCRAHWGSRFNGRG, the amyloid nucleation score is -1.69 ± 2.4.

On to TVLGTSQGSCGWSNPSRNAR, for which the amyloid nucleation score was -0.455 ± 1.7.

With SRLEHRFLICNPELYVNFFM, the amyloid nucleation score was determined as 6.799 ± 0.047.

Regarding SSNLRKTFMSAMHVSSCMV, the amyloid nucleation score amounted to 0.396 ± 0.56.

In the case of DMMAIGSTTVCLVLRFFGKM, the amyloid nucleation score is -0.929 ± 2.7.

Take CRSGYRFLRRRAGLTVMR: the amyloid nucleation score was -0.413 ± 1.5.

In turn, WLKVGGEFSWSVQSVY had an amyloid nucleation score of 0.071 ± 0.55.

As for QSGPSAVY, the amyloid nucleation score stood at 0.362 ± 0.64.

In turn, AYTCDV displayed an amyloid nucleation score of 0.03 ± 0.29.

For LMKCCNVMGCGDDA, the amyloid nucleation score was 2.45 ± 0.15.

On to VCYSLSLNISFSFRNVVVRS, for which the amyloid nucleation score came out at 0.899 ± 0.58.

As for FSKCSFT, the amyloid nucleation score is -0.169 ± 0.69.

On to RSSCL, for which the amyloid nucleation score was -2.09 ± 2.4.

Take TSGSCSACCLWVRGDNETFM: the amyloid nucleation score stood at 7.881 ± 0.048.

In turn, RIFNIYNGVQRRNFYYFYSC displayed an amyloid nucleation score of 7.532 ± 0.05.

For the substance SDMDNTWLA, the amyloid nucleation score is -0.797 ± 0.66.

For GILFALSIVRDDYFC, the amyloid nucleation score was -0.215 ± 0.19.

In the case of ILRPSSFNMVALDLNISLPK, the amyloid nucleation score worked out at 4.82 ± 0.087.

As for FYIFCDDFTGCS, the amyloid nucleation score turned out to be 1.84 ± 0.11.

FGMNLILHCTPTQRTYISPV returned an amyloid nucleation score of 2.83 ± 0.092.

For the substance CFGCF, the amyloid nucleation score was 2.23 ± 0.17.

Substance DDVMSKVPCVTTYSVVLLMR came in with an amyloid nucleation score of 0.83 ± 0.78.

As to TLVQCVSWISGSDKSHRMTI, the amyloid nucleation score was -1.52 ± 2.7.

For VPVVDNIVSIL, the amyloid nucleation score was -0.718 ± 1.7.

Take RSRPVPIVKDRSISNSRESR: the amyloid nucleation score is -0.999 ± 2.4.

Regarding NGHLRSINTSSARCMPAVFT, the amyloid nucleation score is -0.112 ± 0.53.

As to DKRIARLNPRIGTSVSWDVS, the amyloid nucleation score was determined as 0.89 ± 0.5.

Regarding LVGFSVSYKVSENFCSTL, the amyloid nucleation score result was “inactive”.
